Tested on: Escherichia coli TOP10
Assay: shrunken log2 fold change of peptide-encoding DNA abundance (4.5 h post-induction vs induction); higher = less antimicrobial activity (less host growth inhibition)
Conditions: time post-induction: 4.5 h; library: site-saturation at positions 5, 18, 19, 20
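Also: peptides expressed intracellularly from a pBAD plasmid library in pooled LB shake-flask culture, induced with 0.3% L-arabinose, DNA abundance read by NGS, three biological replicates, DESeq2 with apeglm shrinkage.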

Row | Sequence | shrunken log2 fold change
1 | RRIRQRPPRLPRPRPRPIHPPRP | -0.0838
2 | RRIRQRPPRLPRPRPRPIIEPRP | -0.504
3 | RRIRQRPPRLPRPRPRPIIVPRP | -0.0856
4 | RRIRQRPPRLPRPRPRPIKAPRP | 0.00249
5 | RRIRQRPPRLPRPRPRPIKEPRP | -0.023
6 | RRIRQRPPRLPRPRPRPIKKPRP | -0.1
7 | RRIRQRPPRLPRPRPRPILAPRP | 0.465
8 | RRIRQRPPRLPRPRPRPIMLPRP | -0.433
9 | RRIRQRPPRLPRPRPRPINEPRP | 0.0162
10 | RRIRQRPPRLPRPRPRPIRTPRP | -0.0597
11 | RRIRQRPPRLPRPRPRPIRVPRP | -0.00674
12 | RRIRQRPPRLPRPRPRPISGPRP | -0.018
13 | RRIRQRPPRLPRPRPRPISVPRP | 0.136
14 | RRIRQRPPRLPRPRPRPITQPRP | -0.132
15 | RRIRQRPPRLPRPRPRPITYPRP | -0.402
16 | RRIRQRPPRLPRPRPRPIWQPRP | -0.049
17 | RRIRQRPPRLPRPRPRPKAPPRP | 0.653
18 | RRIRQRPPRLPRPRPRPKCNPRP | -0.472
19 | RRIRQRPPRLPRPRPRPKEHPRP | -0.117
20 | RRIRQRPPRLPRPRPRPKEYPRP | 0.0124
21 | RRIRQRPPRLPRPRPRPKGMPRP | 0.0157
22 | RRIRQRPPRLPRPRPRPKGRPRP | 0.0377
23 | RRIRQRPPRLPRPRPRPKHWPRP | 0.0984
24 | RRIRQRPPRLPRPRPRPKIGPRP | -0.0543
25 | RRIRQRPPRLPRPRPRPKLCPRP | 0.0303

Row | Sequence | shrunken log2 fold change
26 | RRIRQRPPRLPRPRPRPKPFPRP | -0.101
27 | RRIRQRPPRLPRPRPRPKQMPRP | 0.114
28 | RRIRQRPPRLPRPRPRPKRFPRP | -0.0339
29 | RRIRQRPPRLPRPRPRPKSLPRP | -0.0933
30 | RRIRQRPPRLPRPRPRPKTAPRP | 0.0173
31 | RRIRQRPPRLPRPRPRPKVDPRP | 0.129
32 | RRIRQRPPRLPRPRPRPKVFPRP | -0.00192
33 | RRIRQRPPRLPRPRPRPKVTPRP | 0.0375
34 | RRIRQRPPRLPRPRPRPKWIPRP | -0.0524
35 | RRIRQRPPRLPRPRPRPKWRPRP | 0.0839
36 | RRIRQRPPRLPRPRPRPKWSPRP | 0.0364
37 | RRIRQRPPRLPRPRPRPKYAPRP | -0.285
38 | RRIRQRPPRLPRPRPRPKYQPRP | -0.369
39 | RRIRQRPPRLPRPRPRPKYTPRP | -0.776
40 | RRIRQRPPRLPRPRPRPLAQPRP | 0.233
41 | RRIRQRPPRLPRPRPRPLCFPRP | -0.302
42 | RRIRQRPPRLPRPRPRPLCVPRP | -0.183
43 | RRIRQRPPRLPRPRPRPLDTPRP | -0.144
44 | RRIRQRPPRLPRPRPRPLEDPRP | 0.0428
45 | RRIRQRPPRLPRPRPRPLFKPRP | -0.387
46 | RRIRQRPPRLPRPRPRPLHRPRP | -0.11
47 | RRIRQRPPRLPRPRPRPLLLPRP | -0.363
48 | RRIRQRPPRLPRPRPRPLLTPRP | -0.235
49 | RRIRQRPPRLPRPRPRPLMAPRP | -0.0462
50 | RRIRQRPPRLPRPRPRPLMQPRP | 0.0776

Row | Sequence | shrunken log2 fold change
51 | RRIRQRPPRLPRPRPRPLMWPRP | 0.0648
52 | RRIRQRPPRLPRPRPRPLPQPRP | 0.337
53 | RRIRQRPPRLPRPRPRPLPVPRP | 0.21
54 | RRIRQRPPRLPRPRPRPLQQPRP | -0.123
55 | RRIRQRPPRLPRPRPRPLQWPRP | 0.123
56 | RRIRQRPPRLPRPRPRPLREPRP | 1.44
57 | RRIRQRPPRLPRPRPRPLRPPRP | 0.699
58 | RRIRQRPPRLPRPRPRPLSHPRP | -0.168
59 | RRIRQRPPRLPRPRPRPLWCPRP | -0.24
60 | RRIRQRPPRLPRPRPRPLWGPRP | -0.0254
61 | RRIRQRPPRLPRPRPRPLWIPRP | -0.0179
62 | RRIRQRPPRLPRPRPRPLYDPRP | -0.226
63 | RRIRQRPPRLPRPRPRPLYIPRP | -0.659
64 | RRIRQRPPRLPRPRPRPMCAPRP | 0.195
65 | RRIRQRPPRLPRPRPRPMCFPRP | -0.352
66 | RRIRQRPPRLPRPRPRPMCNPRP | -0.389
67 | RRIRQRPPRLPRPRPRPMCSPRP | -0.000965
68 | RRIRQRPPRLPRPRPRPMCVPRP | -0.308
69 | RRIRQRPPRLPRPRPRPMDFPRP | 0.015
70 | RRIRQRPPRLPRPRPRPMDSPRP | -0.01
71 | RRIRQRPPRLPRPRPRPMEFPRP | 0.0663
72 | RRIRQRPPRLPRPRPRPMEYPRP | -0.479
73 | RRIRQRPPRLPRPRPRPMFDPRP | -0.109
74 | RRIRQRPPRLPRPRPRPMGLPRP | -0.0103
75 | RRIRQRPPRLPRPRPRPMHAPRP | 0.254

Row | Sequence | shrunken log2 fold change
76 | RRIRQRPPRLPRPRPRPMHLPRP | -0.157
77 | RRIRQRPPRLPRPRPRPMIAPRP | -0.00222
78 | RRIRQRPPRLPRPRPRPMIKPRP | -0.318
79 | RRIRQRPPRLPRPRPRPMIMPRP | 0.0999
80 | RRIRQRPPRLPRPRPRPMKEPRP | -0.0272
81 | RRIRQRPPRLPRPRPRPMLLPRP | -0.337
82 | RRIRQRPPRLPRPRPRPMLWPRP | -0.00459
83 | RRIRQRPPRLPRPRPRPMLYPRP | -0.282
84 | RRIRQRPPRLPRPRPRPMNAPRP | 0.0115
85 | RRIRQRPPRLPRPRPRPMNHPRP | -0.337
86 | RRIRQRPPRLPRPRPRPMPAPRP | 0.178
87 | RRIRQRPPRLPRPRPRPMPVPRP | -0.00339
88 | RRIRQRPPRLPRPRPRPMQIPRP | 0.0201
89 | RRIRQRPPRLPRPRPRPMQLPRP | -0.15
90 | RRIRQRPPRLPRPRPRPMRTPRP | 0.661
91 | RRIRQRPPRLPRPRPRPMSEPRP | 0.0772
92 | RRIRQRPPRLPRPRPRPMSGPRP | 0.076
93 | RRIRQRPPRLPRPRPRPMSNPRP | 0.0758
94 | RRIRQRPPRLPRPRPRPMSTPRP | -0.0212
95 | RRIRQRPPRLPRPRPRPMSVPRP | 0.0173
96 | RRIRQRPPRLPRPRPRPMTHPRP | -0.466
97 | RRIRQRPPRLPRPRPRPMTIPRP | -0.227
98 | RRIRQRPPRLPRPRPRPMTRPRP | 0.0107
99 | RRIRQRPPRLPRPRPRPMWGPRP | -0.263
100 | RRIRQRPPRLPRPRPRPNAYPRP | -0.279

Row | Sequence | shrunken log2 fold change
101 | RRIRQRPPRLPRPRPRPNDQPRP | -0.00615
102 | RRIRQRPPRLPRPRPRPNDTPRP | -0.752
103 | RRIRQRPPRLPRPRPRPNDVPRP | 0.00724
104 | RRIRQRPPRLPRPRPRPNGDPRP | 0.0171
105 | RRIRQRPPRLPRPRPRPNGFPRP | -0.258
106 | RRIRQRPPRLPRPRPRPNGIPRP | -0.0272
107 | RRIRQRPPRLPRPRPRPNHDPRP | -0.509
108 | RRIRQRPPRLPRPRPRPNIEPRP | -0.0328
109 | RRIRQRPPRLPRPRPRPNKLPRP | -0.0898
110 | RRIRQRPPRLPRPRPRPNKRPRP | 0.0702
111 | RRIRQRPPRLPRPRPRPNLYPRP | -0.647
112 | RRIRQRPPRLPRPRPRPNMVPRP | -0.0131
113 | RRIRQRPPRLPRPRPRPNMYPRP | -0.433
114 | RRIRQRPPRLPRPRPRPNNEPRP | -0.885
115 | RRIRQRPPRLPRPRPRPNNGPRP | -0.361
116 | RRIRQRPPRLPRPRPRPNNIPRP | -0.732
117 | RRIRQRPPRLPRPRPRPNPCPRP | -0.349
118 | RRIRQRPPRLPRPRPRPNPLPRP | -0.0379
119 | RRIRQRPPRLPRPRPRPNRNPRP | -0.658
120 | RRIRQRPPRLPRPRPRPNSLPRP | -0.489
121 | RRIRQRPPRLPRPRPRPNVSPRP | 0.00422
122 | RRIRQRPPRLPRPRPRPNVWPRP | 0.134
123 | RRIRQRPPRLPRPRPRPNYHPRP | -0.676
124 | RRIRQRPPRLPRPRPRPNYNPRP | -0.0928
125 | RRIRQRPPRLPRPRPRPPACPRP | 0.162

Row | Sequence | shrunken log2 fold change
126 | RRIRQRPPRLPRPRPRPPAFPRP | 0.379
127 | RRIRQRPPRLPRPRPRPPALPRP | -0.179
128 | RRIRQRPPRLPRPRPRPPANPRP | 0.409
129 | RRIRQRPPRLPRPRPRPPAYPRP | 0.106
130 | RRIRQRPPRLPRPRPRPPDNPRP | 0.00496
131 | RRIRQRPPRLPRPRPRPPDYPRP | 0.00906
132 | RRIRQRPPRLPRPRPRPPHDPRP | 1.12
133 | RRIRQRPPRLPRPRPRPPIFPRP | 0.163
134 | RRIRQRPPRLPRPRPRPPKKPRP | -0.0474
135 | RRIRQRPPRLPRPRPRPPLYPRP | 0.233
136 | RRIRQRPPRLPRPRPRPPMGPRP | 0.187
137 | RRIRQRPPRLPRPRPRPPPTPRP | 0.913
138 | RRIRQRPPRLPRPRPRPPQRPRP | 0.655
139 | RRIRQRPPRLPRPRPRPPSSPRP | 0.0251
140 | RRIRQRPPRLPRPRPRPPVEPRP | 0.265
141 | RRIRQRPPRLPRPRPRPPVQPRP | 0.301
142 | RRIRQRPPRLPRPRPRPPVSPRP | -0.203
143 | RRIRQRPPRLPRPRPRPPVYPRP | -0.0643
144 | RRIRQRPPRLPRPRPRPPWIPRP | -0.145
145 | RRIRQRPPRLPRPRPRPPWKPRP | 0.467
146 | RRIRQRPPRLPRPRPRPPWQPRP | 0.729
147 | RRIRQRPPRLPRPRPRPPWWPRP | 0.498
148 | RRIRQRPPRLPRPRPRPPYCPRP | 0.0161
149 | RRIRQRPPRLPRPRPRPPYDPRP | -0.152
150 | RRIRQRPPRLPRPRPRPPYVPRP | 0.191

Source: the supplement of paper PMC9112550, “Optimization of the antimicrobial peptide Bac7 by deep mutational scanning” (BMC Biology, 2022)
